Measured values from PMC3962104.

Target: T1, S. cerevisiae Ump1, C-terminally 6His-tagged (wild type) (S. cerevisiae), P38293
T1 chain: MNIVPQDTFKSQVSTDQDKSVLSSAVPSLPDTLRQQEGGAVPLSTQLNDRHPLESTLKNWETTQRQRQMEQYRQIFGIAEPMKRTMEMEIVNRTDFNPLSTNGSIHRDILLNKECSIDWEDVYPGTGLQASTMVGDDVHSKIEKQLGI
Assay: non-reducing SDS-PAGE; ion-exchange peak fractions loaded in sample buffer without (-) or with (+) 10 mM DTT, 15% SDS-PAGE, Coomassie Blue; the 36 kDa species is seen when no reducing agent is added
Conditions: remark: other sources report otherwise

B1: S. cerevisiae Ump1, C-terminally 6His-tagged (wild type), P38293 1-148 (natural protein)
chain: T1 chain
stoichiometry N: 2
